The values that follow come from the RNAGym collection of RNA variant scans (doi:10.7554/elife.90254).

Sequences and labels used below:
B1: LINE1-full (parent)
chain: UACGUAGGUGGUUUUCCCCUGAUAGUGCUAAGGGGGCCUGGAAGUUUGGACUGGGCAGAGCUCAACACAGCGUGGCAAAGUGGCUGUGGCUAGACUGCCUCUCUGGAUUCCUCGUCACUCAGCAGGGCAUCUCUGAGAGAAAUGCC

Variants of B1 are the subject of the data set. Put plainly: self-cleavage, relative activity (ratio to wild type); higher = more cleavage; in vitro, sequencing; the parent is a self-cleaving ribozyme.
On to G53A A117G, for which the self-cleavage was 2.04.
Next, C56U A77U: 0.11; G53A U143C: 1.59.
Consider G55U U102C, for which the self-cleavage amounted to 0.06.
Next, C56A G106A: 0.08.
With C56U A117G, the self-cleavage amounted to 0.18.
Next, G53U A64G: 0.16; G54A A69C: 0.04; U52G U85A: 0.17.
With U52G A67G the figure was 0.64.
Next, U52G U112A: 0.56; U52G U112C: 0.99.
For the variant G53A U91C, the self-cleavage is 0.53.
Next, G55U A142G: 0.11; G53A C103A: 1.43; G55A U102C: 0.17.
Consider G53U U81C, for which the self-cleavage was found to be 2.
As for G55A U108C, the self-cleavage worked out at 0.52.
Turning to C56A U134C, the self-cleavage was determined as 0.07.
With G55A G114U the figure was 0.22.
Next, U52C U143G: 1.6; U52C U143C: 1.67; G53C A64G: 0.22.
With C56G A129C the figure was 0.08.
As for G53A A136U, the self-cleavage came to 1.47.
With G55A C110U the figure was 0.53; with G54A U108C, 0.89; with U52G C101U, 1.55.
Next, G54A U73C: 0.67; G55A U73A: 0.12; G54U: 0.67.
With G54A the figure was 0.61.
With G54C, the self-cleavage worked out at 0.86.
Next, G53A U108A: 0.14; G54A A94G: 0.15.
With C56A U130G the figure was 0.03; with G53A U73A, 1.88; with G53A U73G, 1.05.
With U52G G72A the figure was 0.
Consider G54A G125U, for which the self-cleavage was 0.69.
G55C C146U: the self-cleavage is 0.25.
Next, C56U A65G: 0.03; G55A A79G: 0.4; G53U U130C: 1.5.
Next, G53A A142G: 1.3; G55U C113U: 0.07.
G53A A59G: the self-cleavage worked out at 0.06.
Next, G55A C131G: 0.35.
With U52G G58A the figure was 0.09.
With U52G U100A the figure was 0.43.
As to C56U A78U, the self-cleavage was determined as 0.15.
Consider C56U A78G, for which the self-cleavage was determined as 0.06.
Take G55C A67G: the self-cleavage was determined as 0.05.
With U52G U132C the figure was 1.42; with G53C U115C, 1.96.
For the variant G55A U109C, the self-cleavage amounted to 0.1.
With C56A the figure was 0.05; with C56U, 0.11.
With C56G the figure was 0.07; with G53A U96C, 0; with U52G A124G, 1.57.
Next, G55U C133A: 0.26; G54A C116A: 0.47; G54U A129G: 1.02.
In the case of G55A A142G, the self-cleavage turned out to be 0.27.
With G54A A79G the figure was 0.4; with G53A U130A, 1.21; with G54A U130C, 0.9.
Regarding G55A U87C, the self-cleavage amounted to 0.04.
With U52G U108C the figure was 1.94.
Next, G55A U96A: 0.05; G55A U96C: 0.04.
With G54C U104C the figure was 1.3; with G54A C145U, 0.54.
Take G53C U81C: the self-cleavage is 1.34.
With C56G A79G the figure was 0.1; with C56U A57G, 0.04; with C56A C120U, 0.17.
With G54A A121U the figure was 0.85.
Next, G54A A140G: 0.73; G53U U91C: 0.54.
In the case of G53U U87A, the self-cleavage amounted to 0.05.
In the case of G53U U73C, the self-cleavage is 1.22.
Next, G54A U104A: 0.18.
With G54A U104C the figure was 0.44; with U52G U119A, 0.93.
Next, G53U A65U: 0.27; U52G U104A: 1.
As to G54A U96A, the self-cleavage is 0.03.
With G54A U96C the figure was 0.04.
Next, G54U A117G: 0.52; G54A U115G: 1.02; G54A U115C: 1.27.
With G55C U73A the figure was 0.07; with G55C A129U, 0.09; with G55U, 0.19.
For the variant G55A, the self-cleavage stood at 0.19.
Regarding G55C, the self-cleavage is 0.08.
With C56U A69G the figure was 0.02; with C56U A69U, 0.02.
Next, G53A G88A: 0.07; G54A U112A: 0.83; U52G U109A: 2.14.
Take G54U A64G: the self-cleavage was 0.21.
With G54A A117U the figure was 1.1; with G54A A117C, 1.1; with U52G U62C, 0.09.
With C56A U96A the figure was 0.03; with G54C A138G, 1.35.
Next, G55A A64G: 0; G53A U134A: 1.23; U52G U87C: 0.69.
As to G55A U115C, the self-cleavage was determined as 0.63.
Next, G55A U115A: 0.21.
For G53U A69U, the self-cleavage was found to be 0.01.
Next, G55A A92G: 0.03; G54A U81A: 0.78.
For U52G C110G, the self-cleavage came to 1.31.
Next, C56U A92G: 0.06.
Next, G53A A141G: 1.26.
With G55A G125C the figure was 0.15; with G53A A79G, 0.71; with U52G A140G, 1.81.
Turning to C56G A77G, the self-cleavage was 0.04.
As to G53A A124U, the self-cleavage was found to be 1.28.
In the case of G53A U112C, the self-cleavage was determined as 1.25.
With G53A U132C the figure was 1.29.
G54A A57C: the self-cleavage came out at 0.07.
Next, G53A A121U: 1.7; G55A A65G: 0.03.
With G54A U119A the figure was 0.55; with C56A A124G, 0.03.
With G55U U96C the figure was 0.08; with G55C A57U, 0.02.
On to G55C A65G, for which the self-cleavage stood at 0.06.
Next, G53U A94G: 0.2; U52G A142G: 0.51.
With G54A U134G the figure was 0.76.
With G55A U85C the figure was 0.06.
For G54A A138G, the self-cleavage came to 0.84.
With G53A G74A the figure was 1.04; with G55C A142G, 0.06.
With C56U A107G the figure was 0.1; with U52C U134A, 1.07; with G54A A107G, 0.47.
As to G53A U85A, the self-cleavage came out at 0.14.
With G53A U85C the figure was 0.2; with G53C U96C, 0.09.
Next, G53A C146U: 1.31; G54U U115A: 0.74.
Next, G54A A142G: 0.83; G53A U62C: 0.05.
In the case of G55C U87C, the self-cleavage came to 0.37.
With G55C A94C the figure was 0; with G55A A141G, 0.11.
G53U A57C: the self-cleavage was 0.01.
As to G54U G82A, the self-cleavage came out at 1.26.
As for G53A A138G, the self-cleavage was determined as 1.72.
Next, U52G A141G: 1.72.
With U52G A64U the figure was 0.7; with U52G A64G, 0.32.
With G54A G72A the figure was 0.45.
As to G54A U85C, the self-cleavage came out at 0.03.
With G55U U134G, the self-cleavage was 0.15.
With C56U A59G the figure was 0.05; with U52G U91C, 1.23; with G55C G72A, 0.08.
